Results published in publication PMC7641504.

Biological target: double mutant (E87C, C312T) AmtB protein complex from E. coli (E. coli) (UniProt P69681)
Assay: native MS

double mutant (E87C, C312T) AmtB protein complex from E. coli (from UniProt P69681 23-428) (natural protein)
stoichiometry N: 3
